PMC2699502

Target: EcoR124I S subunit (HsdS) (UniProt P10485)
UniProt P10485, sequence (P10485 whole entry): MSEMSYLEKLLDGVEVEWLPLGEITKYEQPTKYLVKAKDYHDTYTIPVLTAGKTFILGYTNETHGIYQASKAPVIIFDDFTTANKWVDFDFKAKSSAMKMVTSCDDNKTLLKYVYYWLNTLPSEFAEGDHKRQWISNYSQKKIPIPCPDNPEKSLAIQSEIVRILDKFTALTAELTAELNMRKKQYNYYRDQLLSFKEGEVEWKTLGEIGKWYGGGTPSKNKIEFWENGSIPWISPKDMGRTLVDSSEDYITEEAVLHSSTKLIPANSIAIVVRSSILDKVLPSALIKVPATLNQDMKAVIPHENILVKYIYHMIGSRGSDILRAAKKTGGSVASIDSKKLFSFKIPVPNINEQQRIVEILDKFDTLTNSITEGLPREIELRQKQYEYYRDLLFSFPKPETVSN

Binder	stoichiometry N
EcoR124I M subunit (HsdM) (enzyme) MKMTSIQQRAELHRQIWQIANDVRGSVDGWDFKQYVLGALFYRFISENFSSYIEAGDDSICYAKLDDSVITDDIKDDAIKTKGYFIYPSQLFCNVAAKANTNDRLNADLNSIFVAIESSAYGYPSEADIKGLFADFDTTSNRLGNTVKDKNARLAAVLKGVEGLKLGDFNEHQIDLFGDAYEFLISNYAANAGKSGGEFFTPQHVSKLIAQLAMHGQTHVNKIYDPAAGSGSLLLQAKKQFDNHIIEEGFFGQEINHTTYNLARMNMFLHNINYDKFDIKLGNTLTEPHFRDEKPFDAIVSNPPYSVKWIGSDDPTLINDERFAPAGVLAPKSKADFAFVLHALNYLSAKGRAAIVCFPGIFYRGGAEQKIRQYLVDNNYVETVISLAPNLFFGTTIAVNILVLSKHKTDTNVQFIDASELFKKETNNNILTDAHIEQIMQVFASKEDVAHLAKSVAFETVVANDYNLSVSSYVEAKDNREIIDIAELNAELKTTVSKIDQLRKDIDAIVAEIEGCEVQK	2 M per S
EcoR124I R subunit (HsdR) (enzyme) MTHQTHTIAESNNFIVLDKYIKAEPTGDSYQSESDLERELIQDLRNQGYEFISVKSQSAMLANVREQLQNLNGVVFNDSEWRRFTEQYLDNPSDGILDKTRKIHIDYICDFIFDDERLENIYLIDKKNLMRNKVQIIQQFEQAGSHANRYDVTILVNGLPLVQIELKKRGVAIREAFNQIHRYSKESFNSENSLFKYLQLFVISNGTDTRYFANTTKRDKNSFDFTMNWAKSDNTLIKDLKDFTATCFQKHTLLNVLVNYSVFDSSQTLLVMRPYQIAATERILWKIKSSFTAKNWSKPESGGYIWHTTGSGKTLTSFKAARLATELDFIDKVFFVVDRKDLDYQTMKEYQRFSPDSVNGSENTAGLKRNLDKDDNKIIVTTIQKLNNLMKAESDLPVYNQQVVFIFDECHRSQFGEAQKNLKKKFKRYYQFGFTGTPIFPENALGSETTASVFGRELHSYVITDAIRDEKVLKFKVDYNDVRPQFKSLETETDEKKLSAAENQQAFLHPMRIQEITQYILNNFRQKTHRTFPGSKGFNAMLAVSSVDAAKAYYATFKRLQEEAANKSATYKPLRIATIFSFAANEEQNAIGEISDETFDTSAMDSSAKEFLDAAIREYNSHFKTNFSTDSNGFQNYYRDLAQRVKNQDIDLLIVVGMFLTGFDAPTLNTLFVDKNLRYHGLMQAFSRTNRIYDATKTFGNIVTFRDLERSTIDAITLFGDKNTKNVVLEKSYTEYMEGFTDAATGEAKRGFMTVVSELEQRFPDPTSIESEKEKKDFVKLFGEYLRAENILQNYDEFATLKALQQIDLSDPVAVEKFKAEHYVDDEKFAELQTIRLPADRKIQDYRSAYNDIRDWQRREKEAEKKEKSTTDWDDVVFEVDLLKSQEINLDYILGLIFEHNRQNKGKGEMIEEVKRLIRSSLGNRAKEGLVVDFIQQTNLDDLPDKASIIDAFFTFAQREQQREAEALIKEENLNEDAAKRYIRTSLKREYATENGTELNETLPKLSPLNPQYKTKKQAVFQKIVSFIEKFKGVGGKI	1 R per S
